Measured values reported in the supplement of paper PMC11246515.
± gives the standard deviation of the averaged measurements.

Experiment: total protein half-life in vivo (active degradation + dilution); higher = more stable protein
[1] = E. coli NCM3722 delta-clpP delta-lon delta-hslV, growth: N-lim chemostat, doubling time 6 h
[2] = E. coli NCM3722 delta-clpP, growth: N-lim chemostat, doubling time 6 h
[3] = E. coli NCM3722 delta-hslV, growth: N-lim chemostat, doubling time 6 h
[4] = E. coli NCM3722 delta-lon, growth: N-lim chemostat, doubling time 6 h
[5] = E. coli NCM3722 delta-smpB, growth: N-lim chemostat, doubling time 6 h
[6] = wild type E. coli NCM3722, growth: C-lim chemostat, doubling time 3 h
[7] = wild type E. coli NCM3722, growth: C-lim chemostat, doubling time 6 h
[8] = wild type E. coli NCM3722, growth: C-lim chemostat, doubling time 12 h
[9] = wild type E. coli NCM3722, growth: N-lim chemostat, doubling time 6 h
[10] = wild type E. coli NCM3722, growth: N-lim chemostat, doubling time 12 h
[11] = wild type E. coli NCM3722, growth: P-lim chemostat, doubling time 6 h
[12] = wild type E. coli NCM3722, growth: P-lim chemostat, doubling time 12 h

Sequence | total protein half-life in vivo [1] [h] | total protein half-life in vivo [2] [h] | total protein half-life in vivo [3] [h] | total protein half-life in vivo [4] [h] | total protein half-life in vivo [5] [h] | total protein half-life in vivo [6] [h] | total protein half-life in vivo [7] [h] | total protein half-life in vivo [8] [h] | total protein half-life in vivo [9] [h] | total protein half-life in vivo [10] [h] | total protein half-life in vivo [11] [h] | total protein half-life in vivo [12] [h]
MIFTSSCCDNLSIDEIIERAEKGDCEAQYIVGFYYNRDSAIDSPDDEKAFYWLKLAAEQGHCEAQYSLGQKYTEDKSRHKDNEQAIFWLKKAALQGHTFASNALGWTLDRGEAPNYKEAVVWYQIAAESGMSYAQNNLGWMYRNGNGVAKDYALAFFWYKQAALQGHSDAQNNLADLYEDGKGVAQNKTLAAFWYLKSAQQGNRHAQFQIAWDYNAGEGVDQDYKQAMYWYLKAAAQGSVGAYVNIGYMYKHGQGVEKDYQAAFEWFTKAAECNDATAWYNLAIMYHYGEGRPVDLRQALDLYRKVQSSGTRDVSQEIRETEDLL | 6.2 | – | – | – | – | – | – | – | – | – | – | –
MERYESLFAQLKERKEGAFVPFVTLGDPGIEQSLKIIDTLIEAGADALELGIPFSDPLADGPTIQNATLRAFAAGVTPAQCFEMLALIRQKHPTIPIGLLMYANLVFNKGIDEFYAQCEKVGVDSVLVADVPVEESAPFRQAALRHNVAPIFICPPNADDDLLRQIASYGRGYTYLLSRAGVTGAENRAALPLNHLVAKLKEYNAAPPLQGFGISAPDQVKAAIDAGAAGAISGSAIVKIIEQHINEPEKMLAALKVFVQPMKAATRS [P0A877] | 3.93 ± 0.57 | 3.89 ± 0.84 | 3.44 ± 0.066 | 4.07 ± 0.48 | 3.69 ± 0.17 | 3.084 ± 0.021 | 5.81 ± 0.23 | 8.972 ± 0.077 | 3.61 ± 0.21 | 5.06 ± 0.87 | 5.39 ± 0.16 | 12 ± 0.5
MGRKWANIVAKKTAKDGATSKIYAKFGVEIYAAAKQGEPDPELNTSLKFVIERAKQAQVPKHVIDKAIDKAKGGGDETFVQGRYEGFGPNGSMIIAETLTSNVNRTIANVRTIFNKKGGNIGAAGSVSYMFDNTGVIVFKGTDPDHIFEILLEAEVDVRDVTEEEGNIVIYTEPTDLHKGIAALKAAGITEFSTTELEMIAQSEVELSPEDLEIFEGLVDALEDDDDVQKVYHNVANL [P0A8A2] | 5.2 ± 0.11 | 4.981 ± 0.0067 | 4.11 ± 0.057 | 5.18 ± 1 | 4.17 ± 0.56 | 2.95 ± 0.35 | 5.79 ± 1.9 | 9.45 ± 0.47 | 4.55 ± 0.5 | 7.06 ± 0.55 | 5.02 ± 0.079 | 9.37 ± 0.61
MANELTWHDVLAEEKQQPYFLNTLQTVASERQSGVTIYPPQKDVFNAFRFTELGDVKVVILGQDPYHGPGQAHGLAFSVRPGIAIPPSLLNMYKELENTIPGFTRPNHGYLESWARQGVLLLNTVLTVRAGQAHSHASLGWETFTDKVISLINQHREGVVFLLWGSHAQKKGAIIDKQRHHVLKAPHPSPLSAHRGFFGCNHFVLANQWLEQRGETPIDWMPVLPAESE | – | 5.184 ± 0.029 | 5.26 ± 0.17 | 5.24 ± 0.29 | 5.6 ± 0.28 | 3.1 ± 0.099 | 5.17 ± 0.19 | 11.2 ± 2.4 | 4.89 ± 0.42 | 10.6 ± 0.65 | 5.97 ± 0.092 | –
MSIVVKNNIHWVGQRDWEVRDFHGTEYKTLRGSSYNSYLIREEKNVLIDTVDHKFSREFVQNLRNEIDLADIDYIVINHAEEDHAGALTELMAQIPDTPIYCTANAIDSINGHHHHPEWNFNVVKTGDTLDIGNGKQLIFVETPMLHWPDSMMTYLTGDAVLFSNDAFGQHYCDEHLFNDEVDQTELFEQCQRYYANILTPFSRLVTPKITEILGFNLPVDMIATSHGVVWRDNPTQIVELYLKWAADYQEDRITIFYDTMSNNTRMMADAIAQGIAETDPRVAVKIFNVARSDKNEILTNVFRSKGVLVGTSTMNNVMMPKIAGLVEEMTGLRFRNKRASAFGSHGWSGGAVDRLSTRLQDAGFEMSLSLKAKWRPDQDALKLCREHGREIARQWALAPLPQSTVNTVVKEETSATTTADLGPRMQCSVCQWIYDPAKGEPMQDVAPGTPWSEVPDNFLCPECSLGKDVFEELASEAK | 5.32 ± 0.78 | 3.24 | – | – | 1.57 | – | – | – | 2.75 | – | – | 10.1 ± 7.1
MAKNRSRRLRKKMHIDEFQELGFSVAWRFPEGTSEEQIDKTVDDFINEVIEPNKLAFDGSGYLAWEGLICMQEIGKCTEEHQAIVRKWLEERKLDEVRTSELFDVWWD | 5.96 ± 0.18 | 6.44 ± 1.1 | 6.42 ± 0.59 | 6.34 ± 0.93 | 5.56 ± 0.31 | 3.43 ± 0.076 | 5.41 ± 0.22 | 9.8 ± 0.27 | 5.26 | 12.6 ± 0.72 | 5.22 ± 0.22 | 11.7 ± 0.92
MKRPNFLFVMTDTQATNMVGCYSGKPLNTQNIDSLAAEGIRFNSAYTCSPVCTPARAGLFTGIYANQSGPWTNNVAPGKNISTMGRYFKDAGYHTCYIGKWHLDGHDYFGTGECPPEWDADYWFDGANYLSELTEKEISLWRNGLNSVEDLQANHIDETFTWAHRISNRAVDFLQQPARADEPFLMVVSYDEPHHPFTCPVEYLEKYADFYYELGEKAQDDLANKPEHHRLWAQAMPSPVGDDGLYHHPLYFACNDFVDDQIGRVINALTPEQRENTWVIYTSDHGEMMGAHKLISKGAAMYDDITRIPLIIRSPQGERRQVDTPVSHIDLLPTMMALADIEKPEILPGENILAVKEPRGVMVEFNRYEIEHDSFGGFIPVRCWVTDDFKLVLNLFTSDELYDRRNDPNEMHNLIDDIRFADVRSKMHDALLDYMDKIRDPFRSYQWSLRPWRKDARPRWMGAFRPRPQDGYSPVVRDYDTGLPTQGVKVEEKKQKF | 5.62 | – | – | 3.1 | 2 | 2.28 | 4.35 ± 0.17 | 7.04 ± 0.66 | – | – | 4.04 | 8.72 ± 5.3
MESLSEGTTAGYQQIHDGIIHLVDSARTETVRSVNALMTATYQEIGRRIVEFEQGGEARAAYGAQLIKRLSKDLCLRYKRGFSAKNLRQMRLFYLFFQHVEIHQTMSGELTPLGIPQTPSAEFPSAKIWQTLSAKSFPLPRSTYVRLLSVKNADARSFYEKETLRCGWSVRQLERQIATQFYERTLLSHDKSAMLQQHAPAETHILPQQAIRDPFVLEFLELKDEYSESDFEEALINHLMDFMLELGDDFAFVGRQRRLRIDDNWFRVDLLFFHRRLRCLLIVDLKVGKFSYSDAGQMNMYLNYAKEHWTLPDENPPIGLVLCAEKGAGEAHYALAGLPNTVLASEYKMQLPDEKRLADELVRTQAVLEEGYRRR | – | – | 5.34 | – | – | – | 5.89 | – | – | – | – | –
MNNSINHKFHHISRAEYQELLAVSRGDAVADYIIDNVSILDLINGGEISGPIVIKGRYIAGVGAEYTDAPALQRIDARGATAVPGFIDAHLHIESSMMTPVTFETATLPRGLTTVICDPHEIVNVMGEAGFAWFARCAEQARQNQYLQVSSCVPALEGCDVNGASFTLEQMLAWRDHPQVTGLAEMMDYPGVISGQNALLDKLDAFRHLTLDGHCPGLGGKELNAYITAGIENCHESYQLEEGRRKLQLGMSLMIREGSAARNLNALAPLINEFNSPQCMLCTDDRNPWEIAHEGHIDALIRRLIEQHNVPLHVAYRVASWSTARHFGLNHLGLLAPGKQADIVLLSDARKVTVQQVLVKGEPIDAQTLQAEESARLAQSAPPYGNTIARQPVSASDFALQFTPGKRYRVIDVIHNELITHSHSSVYSENGFDRDDVSFIAVLERYGQRLAPACGLLGGFGLNEGALAATVSHDSHNIVVIGRSAEEMALAVNQVIQDGGGLCVVRNGQVQSHLPLPIAGLMSTDTAQSLAEQIDALKAAARECGPLPDEPFIQMAFLSLPVIPALKLTSQGLFDGEKFAFTTLEVTE | 4.53 | 3.24 ± 0.11 | – | – | – | 2.16 ± 0.17 | 3.19 ± 0.16 | 4.26 ± 0.098 | – | – | 3.61 ± 1.4 | 4.14 ± 0.77
MTTNTHTLQIEEILELLPHRFPFLLVDRVLDFEEGRFLRAVKNVSVNEPFFQGHFPGKPIFPGVLILEAMAQATGILAFKSVGKLEPGELYYFAGIDEARFKRPVVPGDQMIMEVTFEKTRRGLTRFKGVALVDGKVVCEATMMCARSREA [P0A6Q6] | 5.67 ± 0.36 | – | – | 5.38 ± 0.24 | 5.504 ± 0.036 | 2.86 ± 0.45 | 6.1 ± 0.81 | 11.2 ± 0.12 | 6.23 ± 0.6 | 11.9 ± 0.43 | 5.75 ± 0.8 | 13.4 ± 0.14
MYTKIIGTGSYLPEQVRTNADLEKMVDTSDEWIVTRTGIRERHIAAPNETVSTMGFEAATRAIEMAGIEKDQIGLIVVATTSATHAFPSAACQIQSMLGIKGCPAFDVAAACAGFTYALSVADQYVKSGAVKYALVVGSDVLARTCDPTDRGTIIIFGDGAGAAVLAASEEPGIISTHLHADGSYGELLTLPNADRVNPENSIHLTMAGNEVFKVAVTELAHIVDETLAANNLDRSQLDWLVPHQANLRIISATAKKLGMSMDNVVVTLDRHGNTSAASVPCALDEAVRDGRIKPGQLVLLEAFGGGFTWGSALVRF [P0A6R0] | 5.01 ± 0.12 | 4.93 ± 0.2 | 4.91 ± 0.11 | 5.578 ± 0.021 | 4.564 ± 0.018 | 2.89 ± 0.036 | 5.36 ± 0.51 | 9.94 ± 0.71 | 4.91 ± 0.27 | 9.3 ± 1 | 5.907 ± 0.0094 | 12.9 ± 1.5
